Measured values as given in patent US20160068605A1 (Janssen / Centocor, published 2016).

Tests used:
[1] = molecular target: T1, cell-surface CD3 epsilon on primary cynomolgus T cells (cynomolgus monkey, UniProt Q95LI5 22-198); test: flow cytometry competition with labeled CD3B146 on T cells
T1 construct: whole, on cells; also called cynomolgus CD3e; Cyno T-cells
Excerpt: (§1) The format involved competition binding using a fixed concentration of labeled anti-CD3 mAb of known affinity and increasing concentrations of unlabeled test Abs (Ashkenazi A et al. PNAS: 88:10535, 1991.).

[2] = molecular target: T2, cell-surface CD3 epsilon on primary human T cells (human, UniProt P07766 23-207); test: as above
T2 construct: whole, on cells; part of the CD3/TCR complex on the cells
T2 sequence (P07766 23-207): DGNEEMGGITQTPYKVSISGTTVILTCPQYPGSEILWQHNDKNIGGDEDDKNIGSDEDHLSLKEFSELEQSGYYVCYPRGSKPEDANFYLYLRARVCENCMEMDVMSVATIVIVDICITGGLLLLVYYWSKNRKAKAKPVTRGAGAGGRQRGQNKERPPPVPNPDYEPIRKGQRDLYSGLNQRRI
Excerpt: as §1

T1 sequence (Q95LI5 22-198): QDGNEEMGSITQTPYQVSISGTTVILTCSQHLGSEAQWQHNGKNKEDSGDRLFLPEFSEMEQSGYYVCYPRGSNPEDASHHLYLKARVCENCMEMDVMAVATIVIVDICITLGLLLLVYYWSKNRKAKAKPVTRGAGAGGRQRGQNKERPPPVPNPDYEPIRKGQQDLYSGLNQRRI

B1: CD123 null 4 (bispecific antibody, human IgG4 S228P, lambda, F234A L235A)
heavy: EVQLVESGGGLVQPGGSLKLSCAASGFTFNTYAMNWVRQASGKGLEWVGRIRSKYNAYATYYAASVKGRFTISRDDSKNTAYLQMNSLKTEDTAVYYCTRHGNFGNSYVSWFAYWGQGTLVTVSSASTKGPSVFPLAPCSRSTSESTAALGCLVKDYFPEPVTVSWNSGALTSGVHTFPAVLQSSGLYSLSSVVTVPSSSLGTKTYTCNVDHKPSNTKVDKRVESKYGPPCPPCPAPEAAGGPSVFLFPPKPKDTLMISRTPEVTCVVVDVSQEDPEVQFNWYVDGVEVHNAKTKPREEQFNSTYRVVSVLTVLHQDWLNGKEYKCKVSNKGLPSSIEKTISKAKGQPREPQVYTLPPSQEEMTKNQVSLTCLVKGFYPSDIAVEWESNGQPENNYKTTPPVLDSDGSFLLYSKLTVDKSRWQEGNVFSCSVMHEALHNHYTQKSLSLSLGK
light: QAVVTQEPSLTVSPGGTVTLTCRSSTGAVTTSNYANWVQQKPGQAPRGLIGGTNKRAPGTPARFSGSLLGGKAALTLSGAQPEDEAEYYCALWYSNLWVFGGGTKLTVLGQPKAAPSVTLFPPSSEELQANKATLVCLISDFYPGAVTVAWKADSSPVKAGVETTTPSKQSNNKYAASSYLSLTPEQWKSHRSYSCQVTHEGSTVEKTVAPTECS
VH: not shown
VL: not shown
notes: also called B21M IgG4 x CD3B220
Question: How did the Kd [1] turn out when B1 was run?
Answer: 36.8 nM

Question: What about the Kd [2] of the same binder?
Answer: 48.6 nM
